Reference: US20230025129A1 (KYMAB, published 2023)
Residue numbers refer to the chain shown, from its start. In names and notes the source's numbering stands. Like-named read-outs stand apart in the source and are kept apart here. Each block holds one binder with its values, some of them ahead of it.

Legend:
[1] = target: T1, human matriptase-2 ECD protein his tag (human, UniProt Q8IU80 78-811); assay: cell-based or functional assay
T1 sequence: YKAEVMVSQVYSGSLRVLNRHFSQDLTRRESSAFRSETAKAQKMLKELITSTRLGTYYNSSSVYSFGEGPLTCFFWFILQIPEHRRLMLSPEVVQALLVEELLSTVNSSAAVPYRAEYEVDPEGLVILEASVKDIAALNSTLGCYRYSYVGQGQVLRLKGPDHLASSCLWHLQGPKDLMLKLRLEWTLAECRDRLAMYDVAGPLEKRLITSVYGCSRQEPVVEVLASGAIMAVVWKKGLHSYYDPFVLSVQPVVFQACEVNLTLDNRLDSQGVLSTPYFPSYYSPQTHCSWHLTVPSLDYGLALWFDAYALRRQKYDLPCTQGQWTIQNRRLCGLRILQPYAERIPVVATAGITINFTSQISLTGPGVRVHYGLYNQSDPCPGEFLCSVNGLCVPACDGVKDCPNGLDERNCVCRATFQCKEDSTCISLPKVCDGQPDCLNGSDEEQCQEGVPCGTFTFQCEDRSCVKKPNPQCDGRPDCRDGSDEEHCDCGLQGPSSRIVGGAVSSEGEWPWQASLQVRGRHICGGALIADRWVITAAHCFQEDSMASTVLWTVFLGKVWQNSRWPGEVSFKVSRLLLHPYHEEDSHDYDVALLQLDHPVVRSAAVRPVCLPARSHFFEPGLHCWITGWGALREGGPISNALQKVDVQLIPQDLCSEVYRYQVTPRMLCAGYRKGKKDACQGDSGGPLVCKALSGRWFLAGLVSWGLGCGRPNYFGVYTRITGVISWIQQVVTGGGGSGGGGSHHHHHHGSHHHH

[2] = target: T1, human matriptase-2 ECD protein his tag; assay: SPR (Biacore 8K), huIgG4PE captured on anti-human Fc, MTP-2 ECD as analyte, 1:1 fit
Method: (§1) Off-rate screening was performed by surface plasmon resonance (SPR), using a Biacore 8K system (GE Healthcare). Anti-human Fc mix (˜1000 RU) were immobilised in both active and reference channels in HBS-P+ buffer (GE BR100671) pH 7.4. Anti-MTP-2 hulgG4PE antibodies were then captured for 60 sec at 10 μl/min at 1 μg/ml concentration (approximatively 35 and 50 RU were captured) only on the active channel. MTP-2 ECD protein analytes were then injected (at 100, 25, 6.25, 1.56 and 0 nM concentrations) for 120 sec (association time) at 30 μl/min and dissociation monitored for 600 sec. Multiple cycle kinetics mode was used with all 8 channels being used. Reference and background were subtracted from the sensorgrams for each antibody and data was fitted using a 1:1 interaction model in the Biacore evaluation software. Rmax, ka, kd globally fitted, RI=0.

[3] = target: T2, mouse matriptase-2 ECD protein his tag (mouse, UniProt Q9DBI0 80-811); assay: as above
T2 construct: aa 80-811 of Q9DBI0 with C-terminal linker and His tag; also called mouse MTP-2 ECD; moMTP-2
T2 sequence: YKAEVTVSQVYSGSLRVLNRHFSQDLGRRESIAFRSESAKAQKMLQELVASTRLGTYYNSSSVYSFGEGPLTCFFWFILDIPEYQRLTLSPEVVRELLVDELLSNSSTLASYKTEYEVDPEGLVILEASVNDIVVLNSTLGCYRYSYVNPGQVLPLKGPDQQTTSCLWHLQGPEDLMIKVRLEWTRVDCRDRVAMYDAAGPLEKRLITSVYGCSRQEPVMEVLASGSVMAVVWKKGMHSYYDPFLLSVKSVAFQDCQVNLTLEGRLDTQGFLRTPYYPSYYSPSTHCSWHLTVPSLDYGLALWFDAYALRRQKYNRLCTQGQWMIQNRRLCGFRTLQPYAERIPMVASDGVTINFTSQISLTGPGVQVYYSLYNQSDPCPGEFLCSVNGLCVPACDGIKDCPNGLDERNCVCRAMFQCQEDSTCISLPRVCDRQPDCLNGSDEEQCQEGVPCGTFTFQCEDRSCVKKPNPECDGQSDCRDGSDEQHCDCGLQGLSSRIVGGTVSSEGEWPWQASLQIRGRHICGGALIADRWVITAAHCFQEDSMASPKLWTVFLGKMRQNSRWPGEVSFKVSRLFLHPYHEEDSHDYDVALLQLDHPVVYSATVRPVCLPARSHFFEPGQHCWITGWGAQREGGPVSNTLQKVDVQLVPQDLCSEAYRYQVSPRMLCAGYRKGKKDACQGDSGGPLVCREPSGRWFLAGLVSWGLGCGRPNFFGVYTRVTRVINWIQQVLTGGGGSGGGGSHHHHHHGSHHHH
Method: as §1

[4] = target: T1, human matriptase-2 ECD protein his tag; assay: cell-based or functional assay; remark: listed apart in the source
[5] = target: T2, mouse matriptase-2 ECD protein his tag; assay: cell-based or functional assay

B1: NORI-008 (antibody, human IgG4 S228P, kappa, V domains shown)
VH: QVQLQESGPGLVKPSETLSLTCSVSGGSVSSGRYYWTWIRQPPGKGLEWIGYISNSGNTNYNPSLKSRVTISLDTSKKQFSLSLSAVTAADTAVYYCARGFIYDYWFDPWGQGSLVTVSS
VL: DSQMTQSPSSLSASVGDRVTITCQASQDIDNYLNWYQQRPGKAPKLLIYDASKLETGVPSRFSGSGSGTDFTFTISSLQPEDFATYYCQQYGNLPITFGQGTRLDIKR
notes: human IgG4PE, kappa, in the in vitro assays; a mouse IgG1 format was used in one in vivo study only; also called NORI-008 hulgG4PE; NORI-008 IgG
- Inhibition enzymatic activity human MTP2 protein (IC50) [1]: 8.28 nM
- Binding Late top conc [2]: 35.8
- Kd [2]: 0.0129 nM
- Stoichiometry [2]: 0.72
- koff [2]: 1.47e-05 s⁻¹
- kon [2]: 1.14e+06 M⁻¹ s⁻¹
- Binding Late top conc [3]: 39.2
- Kd [3]: 0.129 nM
- Stoichiometry [3]: 0.86
- koff [3]: 3.05e-05 s⁻¹
- kon [3]: 237000 M⁻¹ s⁻¹
- Inhibition enzymatic activity human MTP2 protein (IC50) [4]: 0.446 nM
- Inhibition enzymatic activity mouse MTP2 protein (IC50) [5]: 0.757 nM

B3: NORI-013 (antibody, human IgG4 S228P, lambda, V domains shown)
VH: EVQLVESGGGLIQAGRSLRLSCAASGFTFDEHVIYWVRQIPGKGLEWISSISWKSDIIAYADSVKGRFTISRDNAKNALYLQMNSLRAEDTALYYCAREKDGDFYYYYFAMDVWGQGTTVTVSS
VL: QSALTQPPSASGSPGQSVTLSCTGTSSDVGYYNYVSWYLQHPGKAPKLMIYEVSKRPSGVPDRFSGSKSANTASLTVSGLQAEDEADYYCSSYAGSNKVVFGGGTKVTVLG
notes: human IgG4PE, lambda
- Inhibition enzymatic activity human MTP2 protein (IC50) [1]: 5.63 nM
- Binding Late top conc [2]: 14.6
- Kd [2]: 1.79 nM
- Stoichiometry [2]: 1.05
- koff [2]: 5.78e-05 s⁻¹
- kon [2]: 32200 M⁻¹ s⁻¹
- Binding Late top conc [3]: 7.5
- Stoichiometry [3]: 1.47
- kon [3]: 10500 M⁻¹ s⁻¹

B5: NORI-006 (antibody, human IgG4 S228P, kappa, V domains shown)
VH: EVQLVESGGGLIKPGRSLRLSCTGSGFTFGDFGLSWFRQAPGKGLEWISFIRSKPYGGTTDYAASVKGRFTISRDDSKNVAYLQMNSLKTEDTAVYYCARNEILTGYYIFDYWGQGTLVTVSS
VL: DIQMTQSPSSLSASLGDRVTITCQASQDINNYLNWYQVQPGKAPKLLIFDASILETGVPSRFSGSGSGTDFSFTISSLQPEDIATYYCQQYDNLPLTFGGGTKVDFKR
notes: human IgG4PE, kappa
- Inhibition enzymatic activity human MTP2 protein (IC50) [1]: 8.8 nM
- Inhibition enzymatic activity human MTP2 protein (IC50) [4]: 1.26 nM
- Inhibition enzymatic activity mouse MTP2 protein (IC50) [5]: 27.6 nM

B6: NORI-003 (antibody, human IgG4 S228P, kappa, V domains shown)
VH: EVQLVESGGGLVKPGRSLRLSCTGSGFTFGDFGMSWFRQAPGKGLEWVGFIRSKPYGGTTDYAPSVRGRFSISRDDSKGIVYLQMNSLRTEDTAVYYCSRNEILTGYYIFDYWGQGTLVTVSS
VL: B5 VL with Q27H, N30T, N34I, V38Q, Q39K, K45R, S72T, I83F, D92Y, F106I
notes: human IgG4PE, kappa; NORI-002 with the free cysteine of the VH domain mutated (printed as 'C49C')
- Inhibition enzymatic activity human MTP2 protein (IC50) [4]: 1.6 nM
- Inhibition enzymatic activity mouse MTP2 protein (IC50) [5]: 19 nM

The next lines start with the values.

- Inhibition enzymatic activity human MTP2 protein (IC50) [4]: 11.4 nM
- Inhibition enzymatic activity mouse MTP2 protein (IC50) [5]: 9.88 nM
B2: NORI-011 (antibody, human IgG4 S228P, lambda)
heavy: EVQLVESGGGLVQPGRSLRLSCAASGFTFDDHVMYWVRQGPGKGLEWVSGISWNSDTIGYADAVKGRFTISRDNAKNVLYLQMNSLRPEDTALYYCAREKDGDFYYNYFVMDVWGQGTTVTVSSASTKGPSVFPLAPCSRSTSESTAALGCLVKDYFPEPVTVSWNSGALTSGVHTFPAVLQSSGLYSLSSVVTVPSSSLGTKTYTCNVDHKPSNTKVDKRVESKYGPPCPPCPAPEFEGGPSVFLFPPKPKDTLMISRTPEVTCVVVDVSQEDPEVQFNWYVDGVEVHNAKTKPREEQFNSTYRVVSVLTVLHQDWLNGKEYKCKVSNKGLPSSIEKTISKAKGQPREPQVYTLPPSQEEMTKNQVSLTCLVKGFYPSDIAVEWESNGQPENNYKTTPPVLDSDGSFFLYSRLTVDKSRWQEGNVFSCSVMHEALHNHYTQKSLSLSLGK
light: QSALTQPPSASGSPGQSVTISCTGTSSDVGFYNFVSWYQQHPDKAPKVMIYEVSKRPSGVPDRFSGSKSGNTASLTVSGLQAEDEADYYCSSYAGSNKVVFGGGTKLTVLGQPKAAPSVTLFPPSSEELQANKATLVCLISDFYPGAVTVAWKADSSPVKAGVETTTPSKQSNNKYAASSYLSLTPEQWKSHRSYSCQVTHEGSTVEKTVAPTECS
notes: human IgG4PE, lambda; NORI-010 with a P124S mutation in the VH domain

- Inhibition enzymatic activity human MTP2 protein (IC50) [1]: 11.8 nM
- Binding Late top conc [2]: 10.7
- Kd [2]: 1.71 nM
- Stoichiometry [2]: 0.9
- koff [2]: 4.6e-05 s⁻¹
- kon [2]: 26900 M⁻¹ s⁻¹
- Binding Late top conc [3]: 5.4
- Stoichiometry [3]: 0.93
- kon [3]: 12100 M⁻¹ s⁻¹
B4: NORI-014 (antibody, human IgG4 S228P, lambda, V domains shown)
VH: B3 VH with I34M, S52T
VL: B3 VL
notes: human IgG4PE, lambda
